# According to PMC4405178 (Biochemistry, 2015):
# Numbering of substitutions follows the chain as printed.
# B1: [K^7(NBD),Nle^12] α-factor (peptide)
# chain: WHWLQLKPGQPMY
# modifications: NBD (7-nitrobenz-2-oxa-1,3-diazol-4-yl) conjugated to the lysine at position 7; norleucine at position 12 in place of methionine
# Assays:
# Experiment in all cases: flow cytometry on cells
# [1] = target: T1, C-terminally truncated wild-type Ste2p (Saccharomyces cerevisiae, UniProt D6VTK4 1-303)
# T1 sequence (looked up): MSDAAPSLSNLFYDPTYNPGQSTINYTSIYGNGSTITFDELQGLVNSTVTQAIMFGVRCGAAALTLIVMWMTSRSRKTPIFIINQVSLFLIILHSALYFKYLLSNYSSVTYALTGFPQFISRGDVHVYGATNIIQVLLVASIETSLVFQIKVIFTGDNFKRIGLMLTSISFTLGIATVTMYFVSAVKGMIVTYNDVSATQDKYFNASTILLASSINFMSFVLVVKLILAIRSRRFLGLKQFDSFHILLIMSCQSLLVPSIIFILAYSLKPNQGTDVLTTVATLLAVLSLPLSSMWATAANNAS
# [2] = target: T2, C-terminally truncated Ste2p V49D (Saccharomyces cerevisiae, UniProt D6VTK4 1-303, V49D)
# T2 sequence (looked up): T1 sequence (looked up) with V49D
# [3] = target: T3, full-length wild-type Ste2p (Saccharomyces cerevisiae, UniProt D6VTK4 1-431)
# T3 sequence (looked up): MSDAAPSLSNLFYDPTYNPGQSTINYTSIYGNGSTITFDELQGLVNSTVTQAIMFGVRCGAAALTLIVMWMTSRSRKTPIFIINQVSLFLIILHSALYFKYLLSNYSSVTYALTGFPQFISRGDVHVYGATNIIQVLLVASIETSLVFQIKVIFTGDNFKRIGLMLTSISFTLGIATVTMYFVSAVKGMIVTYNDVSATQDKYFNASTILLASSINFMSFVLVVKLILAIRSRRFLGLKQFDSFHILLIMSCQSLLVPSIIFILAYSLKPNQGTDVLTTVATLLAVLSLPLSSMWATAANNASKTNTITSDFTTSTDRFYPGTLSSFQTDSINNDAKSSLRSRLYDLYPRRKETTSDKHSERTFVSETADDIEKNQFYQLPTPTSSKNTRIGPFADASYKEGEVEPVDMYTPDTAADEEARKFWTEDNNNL
# [4] = target: T4, C-terminally truncated Ste2p H94Y (Saccharomyces cerevisiae, UniProt D6VTK4 1-303, H94Y)
# T4 sequence (looked up): T1 sequence (looked up) with H94Y
# [5] = target: T5, C-terminally truncated Ste2p F38Y (Saccharomyces cerevisiae, UniProt D6VTK4 1-303, F38Y)
# T5 sequence (looked up): T1 sequence (looked up) with F38Y
# [6] = target: T6, full-length Ste2p V49D (Saccharomyces cerevisiae, UniProt D6VTK4 1-431, V49D)
# T6 sequence (looked up): T3 sequence (looked up) with V49D
binder,measurement,setting,value
B1,Kd,[1],45 ± 1.7 nM
same,Kd,[2],35 ± 4 nM
same,Kd,[3],28 ± 4.7 nM
same,Kd,[4],90 ± 12 nM
same,Kd,[5],64 ± 7.9 nM
same,Kd,[6],49 ± 20 nM
